In US20200231681A1:
Values joined by “and” are separate entries in the source; they are usually repeats but may differ in a detail not shown here. Identical values can stand only once.

B1: hu8C4 (IgG1 humanized antibody having a hinge region of SEQ ID NO: 38 in hu8C4-1) (antibody, V domains shown)
VH: EVQLVESGGGLVQPGGSLRLSCAASGYTFSDYYINWVRQAPGKGLEWIGEIFPGSGNTHFSARFKGRATLSADKSKNTAYLQMNSLRAEDTAVYYCAGGDYGFLYWGQGTLVTVSS
VL: DIQMTQSPSSLSASVGDRVTITCGASENIYGALNWYQQKPGKAPKLLIYGATNLADGVPSRFSGSGSGRDFTFTISSLQPEDIATYYCQNVLSSPYTFGQGTKVEIK
B2: OA-5D5 (Genentech) (antibody, INN chains, looked up, V domains shown)
VH: EVQLVESGGGLVQPGGSLRLSCAASGYTFTSYWLHWVRQAPGKGLEWVGMIDPSNSDTRFNPNFKDRFTISADTSKNTAYLQMNSLRAEDTAVYYCATYRSYVTPLDYWGQGTLVTVSS
VL: DIQMTQSPSSLSASVGDRVTITCKSSQSLLYTSSQKNYLAWYQQKPGKAPKLLIYWASTRESGVPSRFSGSGSGTDFTLTISSLQPEDFATYYCQQYYAYPWTFGQGTKVEIK
modifications: one-armed

Experiments:
[1] = biological target: human FGF R3 (IIIc) Fc chimera (R&D systems, 766-FR) (human) (UniProt P22607); assay: indirect ELISA, hu8C4 at 30.000 nM
[2] = biological target: human FGF R3 (IIIc) Fc chimera (R&D systems, 766-FR) (human) (UniProt P22607); assay: indirect ELISA, hu8C4 at 0.010 nM
[3] = biological target: human FGF R3 (IIIc) Fc chimera (R&D systems, 766-FR) (human) (UniProt P22607); assay: indirect ELISA, hu8C4 at 0.002 nM
[4] = biological target: human FGF R3 (IIIc) Fc chimera (R&D systems, 766-FR) (human) (UniProt P22607); assay: indirect ELISA, hu8C4 at 0.048 nM
[5] = biological target: c-Met receptor on human tumor cells (MKN45, NCI-H820, HCC827) (human) (UniProt P08581); assay: flow cytometry on MKN45 cells, (MFI 37° C. - IgG)/(MFI 4° C. - IgG) x 100
Chain of c-Met receptor on human tumor cells (MKN45, NCI-H820, HCC827) (human) (P08581 25-1390): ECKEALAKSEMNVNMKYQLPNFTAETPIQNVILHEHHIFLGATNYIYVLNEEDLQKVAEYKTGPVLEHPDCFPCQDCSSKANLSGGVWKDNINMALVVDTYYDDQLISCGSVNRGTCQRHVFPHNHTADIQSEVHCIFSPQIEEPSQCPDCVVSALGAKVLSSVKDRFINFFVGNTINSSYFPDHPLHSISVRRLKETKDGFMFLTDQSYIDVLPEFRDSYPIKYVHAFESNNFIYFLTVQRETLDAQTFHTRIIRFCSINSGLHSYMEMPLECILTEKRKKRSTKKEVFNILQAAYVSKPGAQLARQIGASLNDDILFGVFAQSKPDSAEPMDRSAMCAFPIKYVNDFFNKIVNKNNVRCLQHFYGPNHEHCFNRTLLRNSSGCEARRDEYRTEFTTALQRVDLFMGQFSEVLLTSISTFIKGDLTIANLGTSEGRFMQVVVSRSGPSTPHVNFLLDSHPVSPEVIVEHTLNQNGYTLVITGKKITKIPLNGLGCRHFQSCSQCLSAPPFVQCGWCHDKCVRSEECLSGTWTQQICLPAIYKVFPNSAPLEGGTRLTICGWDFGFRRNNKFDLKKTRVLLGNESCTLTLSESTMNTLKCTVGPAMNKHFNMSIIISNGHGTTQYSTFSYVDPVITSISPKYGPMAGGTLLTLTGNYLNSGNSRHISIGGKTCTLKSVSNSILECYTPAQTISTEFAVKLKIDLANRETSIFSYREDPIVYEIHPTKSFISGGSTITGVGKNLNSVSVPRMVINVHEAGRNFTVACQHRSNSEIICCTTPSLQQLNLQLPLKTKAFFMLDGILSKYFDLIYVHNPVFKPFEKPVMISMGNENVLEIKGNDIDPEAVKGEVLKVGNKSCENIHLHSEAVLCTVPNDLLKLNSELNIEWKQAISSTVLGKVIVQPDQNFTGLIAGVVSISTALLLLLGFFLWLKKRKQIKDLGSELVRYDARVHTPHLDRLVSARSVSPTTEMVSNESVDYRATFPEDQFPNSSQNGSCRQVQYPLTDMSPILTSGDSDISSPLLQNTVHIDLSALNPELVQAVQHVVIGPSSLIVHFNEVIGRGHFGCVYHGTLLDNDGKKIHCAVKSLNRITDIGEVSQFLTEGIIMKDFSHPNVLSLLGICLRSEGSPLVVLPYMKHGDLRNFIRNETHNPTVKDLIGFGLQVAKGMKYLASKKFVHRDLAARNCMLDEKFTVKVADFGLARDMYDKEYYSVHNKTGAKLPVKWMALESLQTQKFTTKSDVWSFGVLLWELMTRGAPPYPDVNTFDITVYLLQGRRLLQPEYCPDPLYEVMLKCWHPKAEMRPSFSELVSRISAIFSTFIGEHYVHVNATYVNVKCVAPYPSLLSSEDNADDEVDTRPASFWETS

[6] = biological target: c-Met receptor on human tumor cells (MKN45, NCI-H820, HCC827) (human) (UniProt P08581); assay: flow cytometry on MKN45 cells, 100 nM antibody overnight at 37° C., antibody left on the surface, anti-human kappa LC-FITC
[7] = biological target: c-Met receptor on human tumor cells (MKN45, NCI-H820, HCC827) (human) (UniProt P08581); assay: flow cytometry on MKN45 cells, 100 nM antibody, 4° C. 1 hour (not internalized), anti-human kappa LC-FITC

Row | Binder | A450 nm-A570 nm (A450 nm-A570 nm) [1] | A450 nm-A570 nm (A450 nm-A570 nm) [2] | A450 nm-A570 nm (A450 nm-A570 nm) [3] | A450 nm-A570 nm (A450 nm-A570 nm) [4] | Surface bound Ab(%) [5] | FITC MFI [37° C. exp.] (FITC geo-mean (MFI)) [6] | FITC MFI [4° C. control] (FITC geo-mean (MFI)) [7]
1 | B1 | 0.01 and 0.02 | 0 | 0 | 0 |  |  | 
2 | B2 |  |  |  |  | 98% | 1720 | 1760
